Target: RAB7B-derived peptide presented by HLA-A11 (human)
Test: cell-based or functional assay
Parameters: unit not given beside the values

EC50 of the peptide dose-response of CD137 expression, sort-purified TCR 11N4A-transduced T cells: ~35
B1: TCR 11N4A (TCR, V domains shown)
V domain 1: DQQVKQNSPSLSVQEGRISILNCDYTNSMFDYFLWYKKYPAEGPTFLISISSIKDKNEDGRFTVFLNKSAKHLSLHIVPSQPGDSAVYFCAASGVSGNTPLVFGKGTRLSVIA
V domain 2: GVTQTPRYLIKTRGQQVTLSCSPISGHRSVSWYQQTPGQGLQFLFEYFSETQRNKGNFPGRFSGRQFSNSRSEMNVSTLELGDSALYLCASSVGTVEQYFGPGTRLTVTE

From patent US20250152717A1 (AFFINI T THERAPEUTICS, published 2025)
